Assay results published in CN108635579A (UNIV JINAN, dated 2018).

Columns and labels:
重组人碱性成纤维细胞生长因子(bFGF) [1] = molecular target: T1, 重组人碱性成纤维细胞生长因子(bFGF) (human, UniProt P09038 143-288, limits assumed); assay: cell-based or functional assay
T1 construct: Bought protein; also called 重组人bFGF; bFGF抗原

重组人碱性成纤维细胞生长因子(bFGF) [2] = molecular target: T1, 重组人碱性成纤维细胞生长因子(bFGF); assay: SPR, bFGF immobilised on the chip, nanobody 3.125-200 nM in flow

T1 sequence (P09038 143-288 limits assumed): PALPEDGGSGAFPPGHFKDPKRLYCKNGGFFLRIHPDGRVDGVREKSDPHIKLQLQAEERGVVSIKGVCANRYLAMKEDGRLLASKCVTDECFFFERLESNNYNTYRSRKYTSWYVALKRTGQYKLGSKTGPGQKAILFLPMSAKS

| Molecule | Kd (重组人碱性成纤维细胞生长因子(bFGF) [2]) [nM] | other results |
| --- | --- | --- |
| 阳性对照FGFR (receptor) |  | 最高增值抑制率, A375细胞 (CCK-8) (重组人碱性成纤维细胞生长因子(bFGF) [1]): 25.3%; 最高增值抑制率, B16-F10细胞 (CCK-8) (重组人碱性成纤维细胞生长因子(bFGF) [1]): 22.1%; 最高增值抑制率, B16细胞 (CCK-8) (重组人碱性成纤维细胞生长因子(bFGF) [1]): 27.1% |
| 抗bFGF纳米抗体 Nb6 (VHH, Alpaca nanobody; Nickel-purified, anti-Flag detected; also called Nb bFGF) VHH: LQESGGDLVQPGGSLRLSCEVSGSNFSINDMGWYRQAPGKRREVVAGISSVGRTMYGDPVKGRFTISRDNAKNMVYLQMNRLKPEDTAVYYCHLYGDYRGTGFWGKGTQVTVSS | 10.3 |  |
| 抗bFGF纳米抗体 Nb1 (VHH, Expressed from pET22b in E. coli, purified on a nickel column and detected with an anti-Flag antibody; also called Nb bFGF) VHH: LQESGGDLVQPGGSLRLSCEVSGSNFSNNDMGWYRQAPGKQREVVAGISSVGRTMYGDPVKGRFTISRDNAKNMVYLQMNRLKAKDTAVYYCHLYGDYRGTGFWGKGTQVTVSS | 11.3 |  |
| 抗bFGF纳米抗体 Nb3 (VHH, Alpaca nanobody; Nickel-purified, anti-Flag detected; also called Nb bFGF) VHH: LQESGGDLVQPGGSLRLSCEVSGSNFSINDMGWYRQAPGKRREVVAGISSVGRTMYADPVKGRFTISRDNAKNMVYLQMNRLKPEDTAVYYCHLYGDYRGTGFWGKGTQVTVSS | 5.37 |  |
| 抗bFGF纳米抗体 Nb2 (VHH, Alpaca nanobody; Nickel-purified, anti-Flag detected; also called Nb bFGF) VHH: LQESGGDLVQPGGSLRLSCEVSGSNFSINDMGWYRQAPGKRREVVAGISSVGRAMYADPVKGRFTISRDNAKNMVYLQMNRLKPEDTAVYYCYLYGDYRGTGFWGKGTQVTVSS | 318 |  |
| 抗bFGF纳米抗体 Nb5 (VHH, Alpaca nanobody; Nickel-purified, anti-Flag detected; also called Nb bFGF) VHH: LQESGGGLVQAGGSLRLSCAASGRTFSSGAMGWFRQAPGKEPEFVATITWDGGTTYYADSVKGRYTISRDNAKNTVYLQMNDLKPEDTAVYSCAARSYSEAYYLIGSSDYNYWGQGTQVTVSS | 12.4 |  |
